From article doi:10.1101/2023.02.13.526773 come the findings set out here.

In general, stoichiometry N refers to a count of units in the complex or per binding partner.

For experiment [1], the target named is FLAG-tagged GFP11-CHAMP-1 fusion (N-terminal GFP11). Nature of the experiment: split reporter.
The target of experiment [2] is mEpoR-TM2 (isotope-labelled recombinant mEpoR TM domain fragment) (mouse). Nature of the experiment: SDS-PAGE.

Substance “mEpoR-GFP1-10 fusion protein (domain or fragment)” returned a fold MFI over cells expressing either fusion alone in experiment [1] above 4 fold.

As for “mEpoR-TM2 (isotope-labelled recombinant mEpoR TM domain fragment) (domain or fragment)”, the stoichiometry N in experiment [2] turned out to be 2.
